Assay [1] in a line: TR-FRET retinol binding assay of mRBP4 proteins. As to conditions: retinol binding affinity, Cy5-labeled retinol. As to the method:
The binding affinities of mRBP4 proteins were determined by a TR-FRET retinol binding assay.
WT and pNO2Phe mRBP4 mutant proteins were labeled with biotin using the Sulfo-NHS-Biotin kit (Pierce, Rockford, Ill.) according to manufacturer instructions. For determination of retinol binding activity, 10 nM biotin-labeled RBP4 was mixed with 1 nM Streptavidin-Europium chelate (LANCE® Eu-W8044 Streptavidin, Perkin Elmer, Foster City, Calif.). Increasing concentrations of Cy5-labeled retinol were added to the reaction and retinol binding was assessed by homogeneous time-resolved fluorescence resonance energy transfer (TR-FRET).
For orientation: Time-resolved FRET reads energy transfer from a long-lived donor to a nearby acceptor.

In another assay the target is T1, mRBP4 (Mus musculus, UniProt Q00724).
T1 construct: The cDNA encoding murine RBP4 (aa 19-201); made in house; host or cells: E. coli BL21(DE3)
Kind of assay: Serum IgG titers by ELISA after RIMMS immunization of mice with mRBP4 variants. It counts as in vivo. As to the method:
30 μl of 0.5 μg/ml protein was used to coat the wells of Maxisorp 384-well plates (Nunc, Rochester, N.Y.) overnight at 4° C. After washing with PBS+0.05% Tween 20 (PBST), the coated plates were blocked with 80 μl of 1% BSA in PBS, and washed again with PBST. The plates were sequentially incubated with 20 μl of primary antibody or serum diluted in 1% BSA in PBS, 20 μl of HRP-conjugated goat anti-mouse IgG or anti-mouse IgM (Jackson ImmunoResearch Laboratories, West Grove, Pa.), and 20 μl of TMB substrate (KPL, Gaithersburg, Md.), and read at an absorbance of 650 nm. Between incubations, the plates were washed at least six times with PBST.
Before measurement, serum samples were diluted 1:1,000 with 1% BSA in PBS buffer.
A general note: ELISA stands for enzyme-linked immunosorbent assay.

Turning to “WT mRBP4: wild-type murine retinol binding protein 4”, binding in assay [1] was characterised by a dissociation constant (Kd) of 171 nM. Besides, the “serum IgG titers against WT mRBP4” value in the assay with mRBP4 (Bcl2 mice, RIMMS, ELISA (FIG. 19)) is reported as “insignificant serum IgG titers”; with mRBP4 (C57BL/6 mice, ELISA (FIG. 26)), “insignificant serum IgG titers”.
